# US20130011378A1, “Stable formulations of a hyaluronan-degrading enzyme” (priority 2011, published 2013)
# Where two headings read alike, the source gives them in different places.
# Legend:
# [1] = Lysyl lysine as buffer: titration curve and effect of temperature on pH; assay type: physicochemical; conditions: rHuPH20/insulin glulisine formulations, 30-105 mM lysyl lysine
# [2] = RP-HPLC: insulin apparent solubility / percent recovery
# Procedure: Apparent solubility was measured as the percent insulin recovery as compared to the initial formulations/conditions.
# Samples were prepared by withdrawing 100 μL from each vial at every time point and centrifuging prior to loading. Samples were stored in an autosampler at 4° C. prior to use, and were considered stable for 3 days after preparation. All samples were tested in duplicate.
# For insulin, 20 μL was injected for each HPLC run.
# To determine the apparent solubility, the peak area of insulin/insulin analog main peak and desamido peak were integrated and combined together to calculate the percentage relative to the standards. […] The data were processed using Design-Expert® 7.0 (StatEase) and the “historical data” feature. Insulin percent purity was expressed as the percent of main insulin versus all insulin species.
# rHuPH20 [3] = target: T1, rHuPH20 (Homo sapiens, UniProt P38567); assay: Determination of hyaluronidase activity of rHuPH20, turbidimetric assay (Example 2, variant not specified); assay type: biochemical; conditions: for Effect on rHuPH20 enzymatic activity: stabilizer screening in rHuPH20/insulin formulation, semi-quantitative in comparison with NaCl, samples incubated at 30° C. for about one week
# T1 construct: made in house; host or cells: CHO cells (DG44 CHO, HZ24 plasmid, clone 2B2)
# T1 sequence (P38567 36-482): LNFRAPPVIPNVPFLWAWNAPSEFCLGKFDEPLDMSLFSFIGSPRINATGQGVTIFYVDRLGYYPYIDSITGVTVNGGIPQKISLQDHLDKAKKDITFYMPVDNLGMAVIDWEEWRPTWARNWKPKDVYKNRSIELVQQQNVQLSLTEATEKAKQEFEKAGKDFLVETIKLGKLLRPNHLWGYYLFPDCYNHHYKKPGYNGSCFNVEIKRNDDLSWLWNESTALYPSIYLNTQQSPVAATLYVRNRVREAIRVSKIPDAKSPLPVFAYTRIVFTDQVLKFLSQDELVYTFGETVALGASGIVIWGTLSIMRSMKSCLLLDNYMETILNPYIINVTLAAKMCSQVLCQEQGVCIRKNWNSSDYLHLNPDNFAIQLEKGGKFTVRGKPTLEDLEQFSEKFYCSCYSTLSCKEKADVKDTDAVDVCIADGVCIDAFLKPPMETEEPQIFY
# [4] = system: Aspergillus niger, Pseudomonas aeruginosa, E. coli, Staphylococcus aureus and Candida albicans; assay: Antimicrobial (preservative) effectiveness test, USP / EPA / EPB criteria; assay type: cell-based
# Text: One of skill in the art is familiar with the antimicrobial preservative effectiveness test and standards to be meet under the USP and EPA or EPB in order to meet minimum requirements. […] The preservative properties of the composition are deemed adequate if, under the conditions of the test, there is a significant fall or no increase, as specified in Table 6, below, in the number of microorganisms in the inoculated composition after the times and at the temperatures prescribed. The criteria for evaluation are given in terms of the log reduction in the number of viable microorganism as compared to the initial sample or the previous timepoint.
# The number of viable microorganisms (cfu) in each sample is determined by plate count or membrane filtration. Finally, the cfu for each sample is compared to either the inoculum or the previous sample and log reduction is determined.
# The tests were performed according to the guidance of EP and USP by a contract analytical laboratory (Quadrants Scientific, Inc., San Diego, Calif.). […] Raw data (CFU/mL) was converted to a log 10 unit reduction from the measured inoculum. […]
# The tests were performed according to the guidance of EP and USP by a contract analytical laboratory (Quadrants Scientific, Inc., San Diego, Calif. and Lancaster Laboratories, Lancaster, Pa.). […] Raw data (CFU/mL) was converted to a log 10 unit reduction from the measured inoculum. […]
# [5] = reported; cited from earlier work
# rHuPH20 [6] = target: T1, rHuPH20; assay: RP-HPLC: rHuPH20 oxidation peaks (ox-1, ox-2); assay type: physicochemical; conditions: 40 mM methionine, rHuPH20/insulin formulation, 30° C., 5 weeks
# Text: The stability of hyaluronan degrading enzymes in a composition, such as in the co-formulations provided herein, also can be assessed using other methods and assays known in the art. […] Percent recovery is the relative percentage of the hyaluronidase in the co-formulation over time and at various storage conditions, as compared to a reference sample. […] An increase in particle size and a decrease in the melting temperature indicates denaturation and subsequent aggregation of the hyaluronidase. […] Other methods known to one of skill in the art that can be used to determine the stability of the hyaluronidase in the co-formulations provided herein, include polyacrylamide gel electrophoresis (PAGE), immunoblotting, nuclear magnetic resonance (NMR) spectroscopy, mass spectrometry, circular dichroism (CD) and dye-based fluorescence assays.
# The formulations varied in the surfactant and surfactant concentration and the buffer (either histidine or phosphate).
# Methionine oxidation can be prevented by addition of free methionine as a scavenger to react with potential oxidative compounds.
# rHuPH20 [7] = target: T1, rHuPH20; assay: Differential scanning calorimetry: Tm of rHuPH20; assay type: physicochemical; conditions: in the presence of […] m-cresol
# [8] = stabilizer screening in rHuPH20/insulin formulation, semi-quantitative in comparison with NaCl, RP-HPLC, samples stored at 5° C.
molecule,measurement,setting,value
"Cl.Cl.NCCCCC(N)C(=O)NC(CCCCN)C(=O)O (stereo not shown) [Lys-Lys, Lys-Lys dihydrochloride]",temperature effect (dpH/dT),[1],−0.033 U/° C.
same,Effect on insulin solubility,[2]; [8],Reduced solubility
same,Effect on insulin solubility,"[2]; stabilizer screening, samples stored at 5° C.",caused severe precipitation of insulin
same,Effect on rHuPH20 enzymatic activity,rHuPH20 [3],Strong stabilizer
same,effect on rHuPH20 stability in comparison with NaCl,"rHuPH20 [3]; stabilizer screening, 30° C. about one week, […] m-cresol, 0.2% phenol",stabilized rHuPH20 more than NaCl
[Cl-].[Na+] [NaCl],Effect on antimicrobial effectiveness,[4]; component concentration (80-100 mM),Neutral
NC(CO)(CO)CO [Tris],temperature effect (dpH/dT),[5],−0.028 U/° C.
same,Effect on insulin solubility,[2],No effect
same,Effect on rHuPH20 enzymatic activity,rHuPH20 [3],No effect
CSCC[C@H](N)C(=O)O [methionine],ox-1 peak of rHuPH20 compared to formulations without methionine,rHuPH20 [6],significantly smaller
same,Effect on antimicrobial effectiveness,"[4]; component concentration (50-100 mM), formulations with 100 U/mL insulin or analog and 5 μg/mL rHuPH20",Neutral
same,Effect on insulin solubility,[2]; [8],No effect
same,rHuPH20 enzymatic activity,"rHuPH20 [3]; 1 mM methionine, 30° C. for one month, starting 650 U/mL",525 U/mL
same,rHuPH20 enzymatic activity,"rHuPH20 [3]; 20 mM methionine, 30° C. for one month, starting 650 U/mL",522 U/mL
same,Effect on rHuPH20 enzymatic activity,rHuPH20 [3],No effect
"rHuPH20: secreted soluble recombinant human PH20 expressed in CHO cells; nucleic acid encodes amino acids 36-482 of SEQ ID NO:1 (protein, listed as Homo sapiens, precursor human PH20) LNFRAPPVIPNVPFLWAWNAPSEFCLGKFDEPLDMSLFSFIGSPRINATGQGVTIFYVDRLGYYPYIDSITGVTVNGGIPQKISLQDHLDKAKKDITFYMPVDNLGMAVIDWEEWRPTWARNWKPKDVYKNRSIELVQQQNVQLSLTEATEKAKQEFEKAGKDFLVETIKLGKLLRPNHLWGYYLFPDCYNHHYKKPGYNGSCFNVEIKRNDDLSWLWNESTALYPSIYLNTQQSPVAATLYVRNRVREAIRVSKIPDAKSPLPVFAYTRIVFTDQVLKFLSQDELVYTFGETVALGASGIVIWGTLSIMRSMKSCLLLDNYMETILNPYIINVTLAAKMCSQVLCQEQGVCIRKNWNSSDYLHLNPDNFAIQLEKGGKFTVRGKPTLEDLEQFSEKFYCSCYSTLSCKEKADVKDTDAVDVCIADGVCIDAFLKPPMETEEPQIFY",reduction of Tm of rHuPH20 by DSC,rHuPH20 [7],about 2 °C
same,rHuPH20 enzymatic activity,"rHuPH20 [3]; 2-8° C., 5 Months, pH 7.0, NaCl 50 mM",494.4796
same,rHuPH20 enzymatic activity,"rHuPH20 [3]; 2-8° C., 5 Months, pH 7.0, NaCl 80 mM",575.3274
same,rHuPH20 enzymatic activity,"rHuPH20 [3]; 2-8° C., 5 Months, pH 7.0, NaCl 110 mM",615.3546
same,rHuPH20 enzymatic activity,"rHuPH20 [3]; 2-8° C., 5 Months, pH 7.0, NaCl 140 mM",582.4274
same,rHuPH20 enzymatic activity,"rHuPH20 [3]; 2-8° C., 5 Months, pH 7.2, NaCl 50 mM",481.6035
same,rHuPH20 enzymatic activity,"rHuPH20 [3]; 2-8° C., 5 Months, pH 7.2, NaCl 80 mM",566.2521
same,rHuPH20 enzymatic activity,"rHuPH20 [3]; 2-8° C., 5 Months, pH 7.2, NaCl 110 mM",593.2027
same,rHuPH20 enzymatic activity,"rHuPH20 [3]; 2-8° C., 5 Months, pH 7.2, NaCl 140 mM",585.9948
same,rHuPH20 enzymatic activity,"rHuPH20 [3]; 2-8° C., 5 Months, pH 7.4, NaCl 50 mM",526.6628
same,rHuPH20 enzymatic activity,"rHuPH20 [3]; 2-8° C., 5 Months, pH 7.4, NaCl 80 mM",564.7769
same,rHuPH20 enzymatic activity,"rHuPH20 [3]; 2-8° C., 5 Months, pH 7.4, NaCl 110 mM",618.3856
same,rHuPH20 enzymatic activity,"rHuPH20 [3]; 2-8° C., 5 Months, pH 7.4, NaCl 140 mM",585.9813
same,rHuPH20 enzymatic activity,"rHuPH20 [3]; 2-8° C., 5 Months, pH 7.6, NaCl 50 mM",508.0571
same,rHuPH20 enzymatic activity,"rHuPH20 [3]; 2-8° C., 5 Months, pH 7.6, NaCl 80 mM",546.4209
same,rHuPH20 enzymatic activity,"rHuPH20 [3]; 2-8° C., 5 Months, pH 7.6, NaCl 110 mM",581.6326
same,rHuPH20 enzymatic activity,"rHuPH20 [3]; 2-8° C., 5 Months, pH 7.6, NaCl 140 mM",594.6197
same,rHuPH20 enzymatic activity,"rHuPH20 [3]; 2-8° C., 9 Months, pH 7.0, NaCl 50 mM",436.5115
same,rHuPH20 enzymatic activity,"rHuPH20 [3]; 2-8° C., 9 Months, pH 7.0, NaCl 80 mM",513.9692
same,rHuPH20 enzymatic activity,"rHuPH20 [3]; 2-8° C., 9 Months, pH 7.0, NaCl 110 mM",551.0218
same,rHuPH20 enzymatic activity,"rHuPH20 [3]; 2-8° C., 9 Months, pH 7.0, NaCl 140 mM",554.6513
same,rHuPH20 enzymatic activity,"rHuPH20 [3]; 2-8° C., 9 Months, pH 7.2, NaCl 50 mM",451.8324
same,rHuPH20 enzymatic activity,"rHuPH20 [3]; 2-8° C., 9 Months, pH 7.2, NaCl 80 mM",518.0740
same,rHuPH20 enzymatic activity,"rHuPH20 [3]; 2-8° C., 9 Months, pH 7.2, NaCl 110 mM",553.1847
same,rHuPH20 enzymatic activity,"rHuPH20 [3]; 2-8° C., 9 Months, pH 7.2, NaCl 140 mM",536.7846
same,rHuPH20 enzymatic activity,"rHuPH20 [3]; 2-8° C., 9 Months, pH 7.4, NaCl 50 mM",466.1871
same,rHuPH20 enzymatic activity,"rHuPH20 [3]; 2-8° C., 9 Months, pH 7.4, NaCl 80 mM",509.9032
same,rHuPH20 enzymatic activity,"rHuPH20 [3]; 2-8° C., 9 Months, pH 7.4, NaCl 110 mM",560.4847
same,rHuPH20 enzymatic activity,"rHuPH20 [3]; 2-8° C., 9 Months, pH 7.4, NaCl 140 mM",542.4534
same,rHuPH20 enzymatic activity,"rHuPH20 [3]; 2-8° C., 9 Months, pH 7.6, NaCl 50 mM",464.8964
same,rHuPH20 enzymatic activity,"rHuPH20 [3]; 2-8° C., 9 Months, pH 7.6, NaCl 80 mM",515.3382
same,rHuPH20 enzymatic activity,"rHuPH20 [3]; 2-8° C., 9 Months, pH 7.6, NaCl 110 mM",531.9202
same,rHuPH20 enzymatic activity,"rHuPH20 [3]; 2-8° C., 9 Months, pH 7.6, NaCl 140 mM",523.5385
same,time rHuPH20 stable,"rHuPH20 [3]; 5° C., […] m-cresol, […] phenol, pH 7.0-7.6, 50-140 mM NaCl",12 months
